Laboratory results from US20040018971A1 (published 2004).

Tests used:
[1] = biological target: T1, HLA-A*2401 (human); assay: inhibition of 125I-labelled standard peptide binding to purified HLA, gel filtration
T1 construct: Purified HLA class I molecule (kind: MHC class I); also called A*2402

[2] = biological target: T2, HLA-A*0301 (purified HLA class I molecule) (human); assay: inhibition of 125I probe peptide binding to purified HLA; ratio to standard peptide
T2 construct: also called A3

[3] = biological target: HLA-A*1101 (purified HLA class I molecule) (human); assay: as above
[4] = biological target: T3, HLA-A*1101 (purified HLA class I molecule) (human); assay: competition vs 125I standard peptide, purified HLA
T3 construct: Purified MHC molecule

[5] = biological target: HLA-A*0301 (purified HLA class I molecule) (human); assay: competition vs 125I standard peptide, purified HLA
[6] = biological target: HLA-A*1101 (human); assay: competitive inhibition of 125I-labeled probe peptide binding to purified HLA-A*1101, gel filtration

**Q.** Which relative binding ratio [1] does the source give for CYQDTILW (also called Her2/neu.162 (8-mer)) [HER2/neu peptide, position 162, 8 amino acids] here?
**A.** 0.012 ratio (IC50 of standard peptide / IC50 of test peptide)

**Q.** For GLPREYVNAR (also called Her2/neu.549 (10-mer)) [HER2/neu peptide, position 549, 10 amino acids], which relative binding ratio [2] is on record?
**A.** 0.0002 ratio (IC50 standard / IC50 test)

**Q.** And the relative binding ratio [3]?
**A.** 0.0003 ratio (IC50 standard / IC50 test)

**Q.** With HADGGKVPIK [HER2/neu peptide, position 878, 10 amino acids] as the binder, how does the relative binding ratio [4] read?
**A.** 0.0008 ratio (IC50 standard/IC50 test)

**Q.** What about the relative binding ratio [5] of the same binder?
**A.** 0.0003 ratio (IC50 standard/IC50 test)

**Q.** How did the relative binding ratio [1] turn out when CYGLGMEHL (also called Her2/neu.342 (9-mer)) [HER2/neu peptide, position 342, 9 amino acids] was run?
**A.** 0.018 ratio (IC50 of standard peptide / IC50 of test peptide)

**Q.** With CFVHTVPWDQL (also called Her2/neu.475 (11-mer)) [HER2/neu peptide, position 475, 11 amino acids] as the binder, how does the relative binding ratio [1] read?
**A.** 0.0003 ratio (IC50 of standard peptide / IC50 of test peptide)

**Q.** With MIDSECRPR [HER2/neu peptide, position 960, 9 amino acids] as the binder, how does the relative binding ratio [4] read?
**A.** 0.0006 ratio (IC50 standard/IC50 test)

**Q.** What about the relative binding ratio [5] of the same binder?
**A.** 0.0017 ratio (IC50 standard/IC50 test)

**Q.** What does the source list for HSCVDLDDK [HER2/neu peptide, position 632, 9 amino acids]?
**A.** relative binding ratio [4]: 0.0007 ratio (IC50 standard/IC50 test); relative binding ratio [5]: -0.0002 ratio (IC50 standard/IC50 test)

**Q.** Which relative binding ratio [4] does the source give for KIPVAIKVLR [HER2/neu peptide, position 747, 10 amino acids] here?
**A.** 0.0099 ratio (IC50 standard/IC50 test)

**Q.** What about the relative binding ratio [5] of the same binder?
**A.** 0.0009 ratio (IC50 standard/IC50 test)

**Q.** How did the relative binding ratio [4] turn out when LIKRRQQKIR [HER2/neu peptide, position 674, 10 amino acids] was run?
**A.** 0.0001 ratio (IC50 standard/IC50 test)

**Q.** And the relative binding ratio [5]?
**A.** 0.0002 ratio (IC50 standard/IC50 test)

**Q.** What does the source list for LACHQLCAR [HER2/neu peptide, position 509, 9 amino acids]?
**A.** relative binding ratio [4]: 0.0003 ratio (IC50 standard/IC50 test); relative binding ratio [5]: -0.0002 ratio (IC50 standard/IC50 test)

**Q.** For GILIKRRQQK (also called Her2/neu.672 (10-mer)) [HER2/neu peptide, position 672, 10 amino acids], which relative binding ratio [2] is on record?
**A.** 0.015 ratio (IC50 standard / IC50 test)

**Q.** What about the relative binding ratio [3] of the same binder?
**A.** 0.0014 ratio (IC50 standard / IC50 test)

**Q.** With CMQIAKGMSYL (also called Her2/neu.826 (11-mer)) [HER2/neu peptide, position 826, 11 amino acids] as the binder, how does the relative binding ratio [1] read?
**A.** -0.0003 ratio (IC50 of standard peptide / IC50 of test peptide)

**Q.** For CYQDTILWKDI (also called Her2/neu.162 (11-mer)) [HER2/neu peptide, position 162, 11 amino acids], which relative binding ratio [1] is on record?
**A.** 0.0016 ratio (IC50 of standard peptide / IC50 of test peptide)

**Q.** With AFDNLYYW (also called Her2/neu.1216 (8-mer)) [HER2/neu peptide, position 1216, 8 amino acids] as the binder, how does the relative binding ratio [1] read?
**A.** 0.0039 ratio (IC50 of standard peptide / IC50 of test peptide)

**Q.** With ALTLIDTNR [HER2/neu peptide, position 180, 9 amino acids] as the binder, how does the relative binding ratio [6] read?
**A.** 0.0005 ratio (IC50 of standard peptide / IC50 of test peptide)

**Q.** With AMPNQAQMRIL (also called Her2/neu.705 (11-mer)) [HER2/neu peptide, position 705, 11 amino acids] as the binder, how does the relative binding ratio [1] read?
**A.** -0.0003 ratio (IC50 of standard peptide / IC50 of test peptide)

**Q.** AWPDSLPDL (also called Her2/neu.414 (9-mer)) [HER2/neu peptide, position 414, 9 amino acids] was tested. Which relative binding ratio [1] did it give?
**A.** 0.0041 ratio (IC50 of standard peptide / IC50 of test peptide)

**Q.** Which relative binding ratio [2] does the source give for CTGTDMKLR (also called Her2/neu.26 (9-mer)) [HER2/neu peptide, position 26, 9 amino acids] here?
**A.** 0.0002 ratio (IC50 standard / IC50 test)

**Q.** What about the relative binding ratio [3] of the same binder?
**A.** 0.0005 ratio (IC50 standard / IC50 test)

**Q.** Which relative binding ratio [4] does the source give for MALESILRRR [HER2/neu peptide, position 889, 10 amino acids] here?
**A.** 0.0003 ratio (IC50 standard/IC50 test)

**Q.** And the relative binding ratio [5]?
**A.** 0.0011 ratio (IC50 standard/IC50 test)

**Q.** With LALTLIDTNR [HER2/neu peptide, position 179, 10 amino acids] as the binder, how does the relative binding ratio [4] read?
**A.** 0.0003 ratio (IC50 standard/IC50 test)

**Q.** What about the relative binding ratio [5] of the same binder?
**A.** -0.0002 ratio (IC50 standard/IC50 test)

**Q.** AMPNQAQMR (T0001 prints N there) [HER2/neu peptide, position 705, 9 amino acids] was tested. Which relative binding ratio [6] did it give?
**A.** 0.0006 ratio (IC50 of standard peptide / IC50 of test peptide)

**Q.** With AYSLTLQGL (also called Her2/neu.440 (9-mer)) [HER2/neu peptide, position 440, 9 amino acids] as the binder, how does the relative binding ratio [1] read?
**A.** 0.13 ratio (IC50 of standard peptide / IC50 of test peptide)

**Q.** For AFGTVYKGIWI (also called Her2/neu.730 (11-mer)) [HER2/neu peptide, position 730, 11 amino acids], which relative binding ratio [1] is on record?
**A.** 0.0008 ratio (IC50 of standard peptide / IC50 of test peptide)

**Q.** How did the relative binding ratio [1] turn out when CFVHTVPW (also called Her2/neu.475 (8-mer)) [HER2/neu peptide, position 475, 8 amino acids] was run?
**A.** 0.019 ratio (IC50 of standard peptide / IC50 of test peptide)

**Q.** How did the relative binding ratio [4] turn out when LTLIDTNRSR [HER2/neu peptide, position 181, 10 amino acids] was run?
**A.** 0.0005 ratio (IC50 standard/IC50 test)

**Q.** And the relative binding ratio [5]?
**A.** 0.0002 ratio (IC50 standard/IC50 test)

**Q.** Which relative binding ratio [2] does the source give for ETEYHADGGK (also called Her2/neu.874 (10-mer)) [HER2/neu peptide, position 874, 10 amino acids] here?
**A.** 0.0003 ratio (IC50 standard / IC50 test)

**Q.** What about the relative binding ratio [3] of the same binder?
**A.** 0.0001 ratio (IC50 standard / IC50 test)

**Q.** With DFGLARLLDI (also called Her2/neu.863 (10-mer)) [HER2/neu peptide, position 863, 10 amino acids] as the binder, how does the relative binding ratio [1] read?
**A.** 0.0002 ratio (IC50 of standard peptide / IC50 of test peptide)

**Q.** What does the source list for LVHRDLAAR [HER2/neu peptide, position 841, 9 amino acids]?
**A.** relative binding ratio [4]: 0.0014 ratio (IC50 standard/IC50 test); relative binding ratio [5]: 0.004 ratio (IC50 standard/IC50 test)

**Q.** Which results are given for EVTAEDGTQR (also called Her2/neu.321 (10-mer)) [HER2/neu peptide, position 321, 10 amino acids]?
**A.** relative binding ratio [2]: 0.0002 ratio (IC50 standard / IC50 test); relative binding ratio [3]: 0.0001 ratio (IC50 standard / IC50 test)

**Q.** How did the relative binding ratio [1] turn out when EFAGCKKI (also called Her2/neu.363 (8-mer)) [HER2/neu peptide, position 363, 8 amino acids] was run?
**A.** -0.0003 ratio (IC50 of standard peptide / IC50 of test peptide)

**Q.** For KIRKYTMR [HER2/neu peptide, position 681, 8 amino acids], which relative binding ratio [4] is on record?
**A.** 0.0004 ratio (IC50 standard/IC50 test)

**Q.** What about the relative binding ratio [5] of the same binder?
**A.** 0.001 ratio (IC50 standard/IC50 test)

**Q.** Which relative binding ratio [6] does the source give for ASPLDSTFY [HER2/neu peptide, position 997, 9 amino acids] here?
**A.** 0.0004 ratio (IC50 of standard peptide / IC50 of test peptide)

**Q.** EFAGCKKIF (also called Her2/neu.363 (9-mer)) [HER2/neu peptide, position 363, 9 amino acids] was tested. Which relative binding ratio [1] did it give?
**A.** 0.0003 ratio (IC50 of standard peptide / IC50 of test peptide)

**Q.** How did the relative binding ratio [1] turn out when AFGTVYKGI (also called Her2/neu.730 (9-mer)) [HER2/neu peptide, position 730, 9 amino acids] was run?
**A.** 0.0002 ratio (IC50 of standard peptide / IC50 of test peptide)

**Q.** With LSPGKNGVVK [HER2/neu peptide, position 1173, 10 amino acids] as the binder, how does the relative binding ratio [4] read?
**A.** 0.0003 ratio (IC50 standard/IC50 test)

**Q.** What about the relative binding ratio [5] of the same binder?
**A.** -0.0002 ratio (IC50 standard/IC50 test)

**Q.** With DFGLARLL (also called Her2/neu.863 (8-mer)) [HER2/neu peptide, position 863, 8 amino acids] as the binder, how does the relative binding ratio [1] read?
**A.** 0.0005 ratio (IC50 of standard peptide / IC50 of test peptide)

**Q.** What does the source list for GLGISWLGLR (also called Her2/neu.447 (10-mer)) [HER2/neu peptide, position 447, 10 amino acids]?
**A.** relative binding ratio [2]: 0.0037 ratio (IC50 standard / IC50 test); relative binding ratio [3]: 0.0001 ratio (IC50 standard / IC50 test)

**Q.** AFSPAFDNLY [HER2/neu peptide, position 1212, 10 amino acids] was tested. Which relative binding ratio [6] did it give?
**A.** 0.0003 ratio (IC50 of standard peptide / IC50 of test peptide)

**Q.** Which relative binding ratio [6] does the source give for ASCVTACPY (also called Her2/neu.293) [HER2/neu peptide, position 293, 9 amino acids] here?
**A.** 0.0074 ratio (IC50 of standard peptide / IC50 of test peptide)

**Q.** For GVGSPYVSR [HER2/neu peptide, position 776, 9 amino acids], which relative binding ratio [4] is on record?
**A.** 0.0066 ratio (IC50 standard/IC50 test)

**Q.** What about the relative binding ratio [5] of the same binder?
**A.** 0.001 ratio (IC50 standard/IC50 test)

**Q.** For AFGTVYKGIW (also called Her2/neu.730 (10-mer)) [HER2/neu peptide, position 730, 10 amino acids], which relative binding ratio [1] is on record?
**A.** 0.001 ratio (IC50 of standard peptide / IC50 of test peptide)

**Q.** DVRPQPPSPR (also called Her2/neu.1144 (10-mer)) [HER2/neu peptide, position 1144, 10 amino acids] was tested. Which relative binding ratio [2] did it give?
**A.** 0.0003 ratio (IC50 standard / IC50 test)

**Q.** What about the relative binding ratio [3] of the same binder?
**A.** 0.0001 ratio (IC50 standard / IC50 test)

**Q.** How did the relative binding ratio [1] turn out when AYSLTLQGLGI (also called Her2/neu.440 (11-mer)) [HER2/neu peptide, position 440, 11 amino acids] was run?
**A.** 0.023 ratio (IC50 of standard peptide / IC50 of test peptide)

**Q.** AFSPAFDNL (also called Her2/neu.1212 (9-mer)) [HER2/neu peptide, position 1212, 9 amino acids] was tested. Which relative binding ratio [1] did it give?
**A.** 0.0011 ratio (IC50 of standard peptide / IC50 of test peptide)

**Q.** With AMPNQAQMRI (also called Her2/neu.705 (10-mer)) [HER2/neu peptide, position 705, 10 amino acids] as the binder, how does the relative binding ratio [1] read?
**A.** 0.0002 ratio (IC50 of standard peptide / IC50 of test peptide)

**Q.** Which results are given for GLACHQLCAR (also called Her2/neu.508 (10-mer)) [HER2/neu peptide, position 508, 10 amino acids]?
**A.** relative binding ratio [2]: 0.011 ratio (IC50 standard / IC50 test); relative binding ratio [3]: 0.0001 ratio (IC50 standard / IC50 test)

**Q.** For DLAARNVLVK (also called Her2/neu.845 (10-mer)) [HER2/neu peptide, position 845, 10 amino acids], which relative binding ratio [2] is on record?
**A.** 0.0018 ratio (IC50 standard / IC50 test)

**Q.** What about the relative binding ratio [3] of the same binder?
**A.** 0.0007 ratio (IC50 standard / IC50 test)

**Q.** With ALESILRRR [HER2/neu peptide, position 890, 9 amino acids] as the binder, how does the relative binding ratio [6] read?
**A.** 0.0006 ratio (IC50 of standard peptide / IC50 of test peptide)

**Q.** Which relative binding ratio [6] does the source give for CAAGCTGPK [HER2/neu peptide, position 240, 9 amino acids] here?
**A.** 0.0021 ratio (IC50 of standard peptide / IC50 of test peptide)
